Data as given in US20260001928A1 (CORTERIA PHARMACEUTICALS, priority 2022, published 2026).
*1 amine or outer side, *2 acyl side, *3 side chain or, on linkers, in order; H or OH if unused. Where no end group is shown, it is not given here. Side-chain parts run from the residue outwards. [ ]: non-standard residue; d: D form. The star is where a group is joined. C18 diacid = O=C(O)CCCCCCCCCCCCCCCCC(=O)*; C16 diacid = O=C(O)CCCCCCCCCCCCCCC(=O)*; γGlu = O=C(O)[C@H](CCC(=O)[*:2])N[*:1]; C12 diacid = O=C(O)CCCCCCCCCCC(=O)*; NMeI = CC[C@H](C)[C@H](NC)C(=O)O; Api = NC1(C(=O)O)CCNCC1; Pentanoyl = CCCCC(=O)*; Aib = CC(C)(N)C(=O)O; Propionyl = CCC(=O)*

B1: SEQ ID NO 187 (peptide)
peptide: Ac-IVLSLD[dV]PIKLK([γGlu-C18 diacid])KILLEQEKQKAQREQAETN[Api]QILAQV-NH2
SMILES: CC[C@H](C)[C@H](NC(C)=O)C(=O)N[C@H](C(=O)N[C@@H](CC(C)C)C(=O)N[C@@H](CO)C(=O)N[C@@H](CC(C)C)C(=O)N[C@@H](CC(=O)O)C(=O)N[C@@H](C(=O)N1CCC[C@H]1C(=O)N[C@H](C(=O)N[C@@H](CCCCN)C(=O)N[C@@H](CC(C)C)C(=O)N[C@@H](CCCCNC(=O)CC[C@H](NC(=O)CCCCCCCCCCCCCCCCC(=O)O)C(=O)O)C(=O)N[C@@H](CCCCN)C(=O)N[C@H](C(=O)N[C@@H](CC(C)C)C(=O)N[C@@H](CC(C)C)C(=O)N[C@@H](CCC(=O)O)C(=O)N[C@@H](CCC(N)=O)C(=O)N[C@@H](CCC(=O)O)C(=O)N[C@@H](CCCCN)C(=O)N[C@@H](CCC(N)=O)C(=O)N[C@@H](CCCCN)C(=O)N[C@@H](C)C(=O)N[C@@H](CCC(N)=O)C(=O)N[C@@H](CCCNC(=N)N)C(=O)N[C@@H](CCC(=O)O)C(=O)N[C@@H](CCC(N)=O)C(=O)N[C@@H](C)C(=O)N[C@@H](CCC(=O)O)C(=O)N[C@H](C(=O)N[C@@H](CC(N)=O)C(=O)NC1(C(=O)N[C@@H](CCC(N)=O)C(=O)N[C@H](C(=O)N[C@@H](CC(C)C)C(=O)N[C@@H](C)C(=O)N[C@@H](CCC(N)=O)C(=O)N[C@H](C(N)=O)C(C)C)[C@@H](C)CC)CCNCC1)[C@@H](C)O)[C@@H](C)CC)[C@@H](C)CC)C(C)C)C(C)C
B2: SEQ ID NO 6 (peptide)
peptide: Propionyl-VLSLD[dV]PIKLK([γGlu-C16 diacid])QILLKQERQKKQREQAEKNKQILEQV-NH2
SMILES: CCC(=O)N[C@H](C(=O)N[C@@H](CC(C)C)C(=O)N[C@@H](CO)C(=O)N[C@@H](CC(C)C)C(=O)N[C@@H](CC(=O)O)C(=O)N[C@@H](C(=O)N1CCC[C@H]1C(=O)N[C@H](C(=O)N[C@@H](CCCCN)C(=O)N[C@@H](CC(C)C)C(=O)N[C@@H](CCCCNC(=O)CC[C@H](NC(=O)CCCCCCCCCCCCCCC(=O)O)C(=O)O)C(=O)N[C@@H](CCC(N)=O)C(=O)N[C@H](C(=O)N[C@@H](CC(C)C)C(=O)N[C@@H](CC(C)C)C(=O)N[C@@H](CCCCN)C(=O)N[C@@H](CCC(N)=O)C(=O)N[C@@H](CCC(=O)O)C(=O)N[C@@H](CCCNC(=N)N)C(=O)N[C@@H](CCC(N)=O)C(=O)N[C@@H](CCCCN)C(=O)N[C@@H](CCCCN)C(=O)N[C@@H](CCC(N)=O)C(=O)N[C@@H](CCCNC(=N)N)C(=O)N[C@@H](CCC(=O)O)C(=O)N[C@@H](CCC(N)=O)C(=O)N[C@@H](C)C(=O)N[C@@H](CCC(=O)O)C(=O)N[C@@H](CCCCN)C(=O)N[C@@H](CC(N)=O)C(=O)N[C@@H](CCCCN)C(=O)N[C@@H](CCC(N)=O)C(=O)N[C@H](C(=O)N[C@@H](CC(C)C)C(=O)N[C@@H](CCC(=O)O)C(=O)N[C@@H](CCC(N)=O)C(=O)N[C@H](C(N)=O)C(C)C)[C@@H](C)CC)[C@@H](C)CC)[C@@H](C)CC)C(C)C)C(C)C
B3: SEQ ID NO 185 (peptide)
peptide: Pentanoyl-VLSLD[dV]PIKLK([γGlu-C12 diacid])KILLEQEKQKKQREQAETN[Aib]QILAQV-NH2
SMILES: CCCCC(=O)N[C@H](C(=O)N[C@@H](CC(C)C)C(=O)N[C@@H](CO)C(=O)N[C@@H](CC(C)C)C(=O)N[C@@H](CC(=O)O)C(=O)N[C@@H](C(=O)N1CCC[C@H]1C(=O)N[C@H](C(=O)N[C@@H](CCCCN)C(=O)N[C@@H](CC(C)C)C(=O)N[C@@H](CCCCNC(=O)CC[C@H](NC(=O)CCCCCCCCCCC(=O)O)C(=O)O)C(=O)N[C@@H](CCCCN)C(=O)N[C@H](C(=O)N[C@@H](CC(C)C)C(=O)N[C@@H](CC(C)C)C(=O)N[C@@H](CCC(=O)O)C(=O)N[C@@H](CCC(N)=O)C(=O)N[C@@H](CCC(=O)O)C(=O)N[C@@H](CCCCN)C(=O)N[C@@H](CCC(N)=O)C(=O)N[C@@H](CCCCN)C(=O)N[C@@H](CCCCN)C(=O)N[C@@H](CCC(N)=O)C(=O)N[C@@H](CCCNC(=N)N)C(=O)N[C@@H](CCC(=O)O)C(=O)N[C@@H](CCC(N)=O)C(=O)N[C@@H](C)C(=O)N[C@@H](CCC(=O)O)C(=O)N[C@H](C(=O)N[C@@H](CC(N)=O)C(=O)NC(C)(C)C(=O)N[C@@H](CCC(N)=O)C(=O)N[C@H](C(=O)N[C@@H](CC(C)C)C(=O)N[C@@H](C)C(=O)N[C@@H](CCC(N)=O)C(=O)N[C@H](C(N)=O)C(C)C)[C@@H](C)CC)[C@@H](C)O)[C@@H](C)CC)[C@@H](C)CC)C(C)C)C(C)C
B4: SEQ ID NO 186 (peptide)
peptide: [NMeI]VLSLD[dV]PIKLK([γGlu-C12 diacid])KILLEQEKQKKQREQAETN[Aib]QILAQV-NH2
modifications: N-terminus assumed
SMILES: CC[C@H](C)[C@H](NC)C(=O)N[C@H](C(=O)N[C@@H](CC(C)C)C(=O)N[C@@H](CO)C(=O)N[C@@H](CC(C)C)C(=O)N[C@@H](CC(=O)O)C(=O)N[C@@H](C(=O)N1CCC[C@H]1C(=O)N[C@H](C(=O)N[C@@H](CCCCN)C(=O)N[C@@H](CC(C)C)C(=O)N[C@@H](CCCCNC(=O)CC[C@H](NC(=O)CCCCCCCCCCC(=O)O)C(=O)O)C(=O)N[C@@H](CCCCN)C(=O)N[C@H](C(=O)N[C@@H](CC(C)C)C(=O)N[C@@H](CC(C)C)C(=O)N[C@@H](CCC(=O)O)C(=O)N[C@@H](CCC(N)=O)C(=O)N[C@@H](CCC(=O)O)C(=O)N[C@@H](CCCCN)C(=O)N[C@@H](CCC(N)=O)C(=O)N[C@@H](CCCCN)C(=O)N[C@@H](CCCCN)C(=O)N[C@@H](CCC(N)=O)C(=O)N[C@@H](CCCNC(=N)N)C(=O)N[C@@H](CCC(=O)O)C(=O)N[C@@H](CCC(N)=O)C(=O)N[C@@H](C)C(=O)N[C@@H](CCC(=O)O)C(=O)N[C@H](C(=O)N[C@@H](CC(N)=O)C(=O)NC(C)(C)C(=O)N[C@@H](CCC(N)=O)C(=O)N[C@H](C(=O)N[C@@H](CC(C)C)C(=O)N[C@@H](C)C(=O)N[C@@H](CCC(N)=O)C(=O)N[C@H](C(N)=O)C(C)C)[C@@H](C)CC)[C@@H](C)O)[C@@H](C)CC)[C@@H](C)CC)C(C)C)C(C)C
B5: SEQ ID NO 184 (peptide)
peptide: Ac-IVLSLD[dV]PIKLK([γGlu-C12 diacid])KILLEQEKQK[Aib]QREQAETN[Api]QILAQV-NH2
SMILES: CC[C@H](C)[C@H](NC(C)=O)C(=O)N[C@H](C(=O)N[C@@H](CC(C)C)C(=O)N[C@@H](CO)C(=O)N[C@@H](CC(C)C)C(=O)N[C@@H](CC(=O)O)C(=O)N[C@@H](C(=O)N1CCC[C@H]1C(=O)N[C@H](C(=O)N[C@@H](CCCCN)C(=O)N[C@@H](CC(C)C)C(=O)N[C@@H](CCCCNC(=O)CC[C@H](NC(=O)CCCCCCCCCCC(=O)O)C(=O)O)C(=O)N[C@@H](CCCCN)C(=O)N[C@H](C(=O)N[C@@H](CC(C)C)C(=O)N[C@@H](CC(C)C)C(=O)N[C@@H](CCC(=O)O)C(=O)N[C@@H](CCC(N)=O)C(=O)N[C@@H](CCC(=O)O)C(=O)N[C@@H](CCCCN)C(=O)N[C@@H](CCC(N)=O)C(=O)N[C@@H](CCCCN)C(=O)NC(C)(C)C(=O)N[C@@H](CCC(N)=O)C(=O)N[C@@H](CCCNC(=N)N)C(=O)N[C@@H](CCC(=O)O)C(=O)N[C@@H](CCC(N)=O)C(=O)N[C@@H](C)C(=O)N[C@@H](CCC(=O)O)C(=O)N[C@H](C(=O)N[C@@H](CC(N)=O)C(=O)NC1(C(=O)N[C@@H](CCC(N)=O)C(=O)N[C@H](C(=O)N[C@@H](CC(C)C)C(=O)N[C@@H](C)C(=O)N[C@@H](CCC(N)=O)C(=O)N[C@H](C(N)=O)C(C)C)[C@@H](C)CC)CCNCC1)[C@@H](C)O)[C@@H](C)CC)[C@@H](C)CC)C(C)C)C(C)C
B6: SEQ ID NO 183 (peptide)
peptide: Ac-IVLSLD[dV]PIKLK([γGlu-C12 diacid])KILLEQEKQKKQREQAETN[Api]QILAQV-NH2
SMILES: CC[C@H](C)[C@H](NC(C)=O)C(=O)N[C@H](C(=O)N[C@@H](CC(C)C)C(=O)N[C@@H](CO)C(=O)N[C@@H](CC(C)C)C(=O)N[C@@H](CC(=O)O)C(=O)N[C@@H](C(=O)N1CCC[C@H]1C(=O)N[C@H](C(=O)N[C@@H](CCCCN)C(=O)N[C@@H](CC(C)C)C(=O)N[C@@H](CCCCNC(=O)CC[C@H](NC(=O)CCCCCCCCCCC(=O)O)C(=O)O)C(=O)N[C@@H](CCCCN)C(=O)N[C@H](C(=O)N[C@@H](CC(C)C)C(=O)N[C@@H](CC(C)C)C(=O)N[C@@H](CCC(=O)O)C(=O)N[C@@H](CCC(N)=O)C(=O)N[C@@H](CCC(=O)O)C(=O)N[C@@H](CCCCN)C(=O)N[C@@H](CCC(N)=O)C(=O)N[C@@H](CCCCN)C(=O)N[C@@H](CCCCN)C(=O)N[C@@H](CCC(N)=O)C(=O)N[C@@H](CCCNC(=N)N)C(=O)N[C@@H](CCC(=O)O)C(=O)N[C@@H](CCC(N)=O)C(=O)N[C@@H](C)C(=O)N[C@@H](CCC(=O)O)C(=O)N[C@H](C(=O)N[C@@H](CC(N)=O)C(=O)NC1(C(=O)N[C@@H](CCC(N)=O)C(=O)N[C@H](C(=O)N[C@@H](CC(C)C)C(=O)N[C@@H](C)C(=O)N[C@@H](CCC(N)=O)C(=O)N[C@H](C(N)=O)C(C)C)[C@@H](C)CC)CCNCC1)[C@@H](C)O)[C@@H](C)CC)[C@@H](C)CC)C(C)C)C(C)C

Experiments:
[1] = molecular target: human corticotropin-releasing factor 2a (CRF2a receptor) (human), Q13324; assay: cell-based or functional assay
CRF1R receptor = molecular target: T1, CRF1R receptor (UniProt P34998 24-415, limits assumed); assay: cell-based or functional assay
T1 sequence (looked up): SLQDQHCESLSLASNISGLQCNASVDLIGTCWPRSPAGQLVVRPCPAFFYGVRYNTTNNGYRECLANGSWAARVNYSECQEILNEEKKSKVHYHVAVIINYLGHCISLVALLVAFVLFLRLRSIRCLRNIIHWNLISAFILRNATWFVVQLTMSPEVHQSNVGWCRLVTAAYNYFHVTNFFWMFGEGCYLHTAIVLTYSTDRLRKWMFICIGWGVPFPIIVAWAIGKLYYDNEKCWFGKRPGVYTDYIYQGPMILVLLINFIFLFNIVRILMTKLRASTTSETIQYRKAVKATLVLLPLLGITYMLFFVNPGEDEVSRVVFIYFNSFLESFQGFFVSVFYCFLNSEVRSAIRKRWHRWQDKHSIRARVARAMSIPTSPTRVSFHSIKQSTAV

human corticotropin-releasing factor 2a (CRF2a receptor) (human), Q13324, sequence (Q13324 20-411): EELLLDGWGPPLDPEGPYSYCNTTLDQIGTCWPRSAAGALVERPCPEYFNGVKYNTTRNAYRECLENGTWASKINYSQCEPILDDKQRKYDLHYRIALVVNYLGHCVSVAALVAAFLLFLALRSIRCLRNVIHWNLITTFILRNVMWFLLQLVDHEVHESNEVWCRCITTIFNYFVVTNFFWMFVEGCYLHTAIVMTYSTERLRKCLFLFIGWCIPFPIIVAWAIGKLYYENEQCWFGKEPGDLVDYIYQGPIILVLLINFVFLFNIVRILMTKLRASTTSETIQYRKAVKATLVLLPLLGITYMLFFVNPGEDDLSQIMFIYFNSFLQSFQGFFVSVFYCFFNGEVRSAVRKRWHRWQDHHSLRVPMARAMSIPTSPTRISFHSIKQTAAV

EC50 [nM] (cAMP) [1] | EC50 (CRF1R receptor) [nM] | Emax (% I) (CRF1R receptor) [%] | Binder
0.26 | 195 | 37 | B1
0.09 | 166 | 56 | B2
3.54 | – | 2 | B3
0.79 | – | 2 | B4
4.25 | – | 3 | B5
2.47 | – | 11 | B6
